Earlier results as cited in publication PMC3185792.
Like-named read-outs stand apart in the source and are kept apart here.

Assays:
ICAM (Homo sapiens) [1] = target: ICAM (Homo sapiens) (UniProt P05362)
ICAM (Homo sapiens) [2] = target: ICAM (Homo sapiens) (UniProt P05362); remark: listed apart in the source

ICAM (Homo sapiens), sequence (P05362 28-480): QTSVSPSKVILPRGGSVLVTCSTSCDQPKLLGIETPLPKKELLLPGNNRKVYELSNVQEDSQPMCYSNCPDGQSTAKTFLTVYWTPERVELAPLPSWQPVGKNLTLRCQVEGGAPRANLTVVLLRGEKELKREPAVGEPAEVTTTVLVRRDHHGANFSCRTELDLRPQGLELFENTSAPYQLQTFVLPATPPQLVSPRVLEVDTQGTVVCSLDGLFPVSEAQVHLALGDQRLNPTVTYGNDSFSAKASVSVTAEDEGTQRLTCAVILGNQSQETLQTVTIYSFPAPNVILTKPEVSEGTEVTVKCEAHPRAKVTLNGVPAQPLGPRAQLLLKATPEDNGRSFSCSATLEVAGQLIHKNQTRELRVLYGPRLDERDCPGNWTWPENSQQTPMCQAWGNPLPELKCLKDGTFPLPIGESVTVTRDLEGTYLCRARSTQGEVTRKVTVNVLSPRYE
LFA-1 integrin (closed conformation), sequence (P20701 26-1090): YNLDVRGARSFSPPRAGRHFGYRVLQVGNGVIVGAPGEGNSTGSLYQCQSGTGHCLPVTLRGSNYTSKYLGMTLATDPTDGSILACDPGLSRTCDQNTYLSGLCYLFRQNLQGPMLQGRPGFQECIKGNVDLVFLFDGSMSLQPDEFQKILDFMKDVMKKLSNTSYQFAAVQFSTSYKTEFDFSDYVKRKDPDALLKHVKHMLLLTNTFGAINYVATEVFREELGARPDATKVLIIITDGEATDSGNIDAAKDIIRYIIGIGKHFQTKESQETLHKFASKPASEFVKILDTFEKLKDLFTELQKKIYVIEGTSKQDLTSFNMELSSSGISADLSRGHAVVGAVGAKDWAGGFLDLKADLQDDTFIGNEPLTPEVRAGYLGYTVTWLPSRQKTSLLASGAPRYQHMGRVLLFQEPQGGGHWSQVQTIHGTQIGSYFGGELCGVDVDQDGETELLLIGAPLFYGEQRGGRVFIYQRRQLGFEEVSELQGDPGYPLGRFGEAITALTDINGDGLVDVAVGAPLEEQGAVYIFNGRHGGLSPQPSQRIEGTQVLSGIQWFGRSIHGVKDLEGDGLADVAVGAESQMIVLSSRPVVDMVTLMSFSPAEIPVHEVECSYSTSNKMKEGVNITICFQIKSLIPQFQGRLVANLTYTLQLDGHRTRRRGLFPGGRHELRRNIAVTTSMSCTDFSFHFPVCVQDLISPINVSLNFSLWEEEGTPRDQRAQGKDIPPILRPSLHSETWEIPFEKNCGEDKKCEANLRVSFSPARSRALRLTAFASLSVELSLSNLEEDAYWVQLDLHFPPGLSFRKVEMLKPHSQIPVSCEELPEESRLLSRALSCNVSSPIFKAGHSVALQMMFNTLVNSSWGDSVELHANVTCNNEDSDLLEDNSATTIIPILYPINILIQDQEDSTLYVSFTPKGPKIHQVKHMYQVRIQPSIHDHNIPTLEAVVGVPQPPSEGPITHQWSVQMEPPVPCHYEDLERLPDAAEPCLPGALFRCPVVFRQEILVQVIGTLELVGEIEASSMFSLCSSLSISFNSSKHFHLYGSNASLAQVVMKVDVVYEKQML
LFA-1 integrin (closed conformation), sequence (P05107 23-700, further chain): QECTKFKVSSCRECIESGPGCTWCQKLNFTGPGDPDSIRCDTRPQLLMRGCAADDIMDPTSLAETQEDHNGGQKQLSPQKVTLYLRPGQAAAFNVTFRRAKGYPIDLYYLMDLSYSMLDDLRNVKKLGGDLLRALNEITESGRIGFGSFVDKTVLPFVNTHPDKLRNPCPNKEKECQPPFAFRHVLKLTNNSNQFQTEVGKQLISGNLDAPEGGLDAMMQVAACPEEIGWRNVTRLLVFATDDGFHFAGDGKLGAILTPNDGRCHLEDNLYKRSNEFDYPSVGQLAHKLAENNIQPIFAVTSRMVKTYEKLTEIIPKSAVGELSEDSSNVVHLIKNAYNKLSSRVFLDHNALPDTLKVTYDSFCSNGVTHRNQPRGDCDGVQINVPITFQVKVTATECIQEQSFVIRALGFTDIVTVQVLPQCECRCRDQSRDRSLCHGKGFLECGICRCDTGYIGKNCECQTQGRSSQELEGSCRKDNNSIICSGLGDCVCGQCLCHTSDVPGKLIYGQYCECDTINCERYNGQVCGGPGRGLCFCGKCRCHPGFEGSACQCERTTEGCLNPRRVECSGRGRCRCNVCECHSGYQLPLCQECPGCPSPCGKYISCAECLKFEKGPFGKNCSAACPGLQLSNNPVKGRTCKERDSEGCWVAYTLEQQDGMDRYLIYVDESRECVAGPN
LFA-1 integrin (open conformation), sequence (P20701 26-1090): as the sequence (P20701 26-1090) above
LFA-1 integrin (open conformation), sequence (P05107 23-700, further chain): as the sequence (P05107 23-700, further chain) above

Kd (ICAM (Homo sapiens) [1]) [µM] | Kd (ICAM (Homo sapiens) [2]) [µM] | Substance
100 | – | LFA-1 integrin (closed conformation) (from UniProt P20701)
– | 0.4 | LFA-1 integrin (open conformation) (from UniProt P20701)
